The target of data set [1] is PC:PA liposomes (95:5 molar ratio PC:PA). Put plainly: liposome pulldown. The note with it: 1 µg peptide, 95:5 molar ratio PC:PA, read off a plot.
A further data set addresses PC only liposomes. Description: liposome pulldown. The note with it: 1 µg peptide, PC only, read off a plot.
A further data set can be described thus: Liposome pulldown. It counts as binding. The following applies: 1 µg defensin; for Fraction of total protein (%), bound fraction: pH 5.5 (20 mM MES); for Fraction of total protein (%), Bound: pH 7.4. How it is done: (§1) Liposomes were prepared using natural chicken egg L-α-phophatidylcholine and L-α-phosphatidic acid dissolved in chloroform (Avanti Polar Lipids), and liposome pulldowns (at pH 7.4) and calcein-encapsulated liposome lysis assays were performed as previously described. For liposome pulldowns performed at pH 5.5, the same protocol was used with minor variations. The desiccated lipid films were resuspended in 20 mM MES pH 7.4 and were washed in the same buffer during the centrifugation process. After the final wash step, the liposome pellets were resuspended in 20 mM MES pH 5.5 and incubated with CpoBD13 or mutants thereof (also prepared in the same acidic buffer).

Data set [2] in a line: Calcein-encapsulated liposome lysis assay. It counts as biochemical. How it is done: as §1
Another data set relates to C. albicans ATCC 10231. Put plainly: Fungal growth inhibition assay. The data set is classed as cell-based, Candida albicans. The note with it: 24 h; for IC50: unit not in table, µM, read-out: IC50. The protocol:
For fungal growth assays, overnight cultures of C. albicans ATCC 10231 cells (yeast peptone dextrose broth, 30°C, shaking at 160 rpm) were pelleted (2000 g, 5 min), washed once in 0.5× potato dextrose broth (BD Biosciences, Franklin Lakes, NJ) and finally resuspended in the same media. Cells were seeded onto a 96-well plate (400 cells, 50 µL) and treated with an equal volume of varying concentrations of defensin in 0.5× potato dextrose broth. After incubating the samples (24 h, 30 °C), the plates were shaken to distribute the cells and growth was determined by performing a 9-well scan (600 nm) using a Spectramax M5e microplate reader (Molecular Devices, San Jose, CA). For assays testing defensin salt tolerance, C. albicans cells were instead resuspended in 1x potato dextrose broth and treated with an equal volume of CpoBD13 + NaCl solution at their intended concentrations. Propidium iodide (PI) uptake assays were performed by preparing the cells as per the standard growth inhibition assay however they were instead seeded onto a U-bottom 96-well plate (50,000 cells, 25 µL). […] For PI uptake experiments performed at a specific pH, the same method was followed with the exception that cells were resuspended in 1× potato dextrose broth while defensin titrations were diluted in 40 mM MES buffer at the intended pH. An example PI uptake gating strategy is presented in Supplementary Fig. 1d.

Data set [3] concerns the molecule itself. Description: cross-linking; BS(PEG)5 cross-linker; CpoBD13 or mutant (1 mg/mL stock) with 115 µM phosphatidic acid (08:0 PA; 0.46 mM stock), 20 mM HEPES pH 7.1, 30 min; SDS-PAGE and colloidal Coomassie.
Data set [4] deals with the molecule itself. Put plainly: cross-linking; BS(PEG)5 cross-linker; CpoBD13 (1 mg/mL stock) with 0 or 23 µM phosphatidic acid (08:0 PA; 0 or 0.092 mM stock), 20 mM HEPES pH 7.1, 30 min; SDS-PAGE and colloidal Coomassie.
The mark [5] stands for this setting: PC:PA 95:5 liposomes, replicate 1.
Setting [6] is: PC:PA 95:5 liposomes, replicate 2.
The mark [7] stands for this setting: PC:PA 95:5 liposomes, replicate 3.

Read-outs that look alike come from different tables or passages of the source.

Regarding “Crocodylus porosus β-defensin 13 (CpoBD13) (from UniProt A0A7G6KN55) R17A”, the response (% (fraction of total)) came out at 87 in data set [1] (pH 5.5, parent: est. 88); 26 in data set [1] (pH 7.4, parent: est. 43); 22 in the data set with PC only liposomes (pH 5.5, parent: est. 20); 13 with PC only liposomes (pH 7.4, parent: est. 15).
As usually defined, the IC50 is the concentration at which inhibition is half-maximal. Take “CpoBD13 (H35A): CpoBD13 point mutant H35A”: the “Fraction of total protein (%), bound fraction” value stood at 23.8871% in the data set “Liposome pulldown” (PC only liposomes, replicate 1); 10.4017% in “Liposome pulldown” (PC only liposomes, replicate 2); 20.2373% in “Liposome pulldown” (PC only liposomes, replicate 3); 106.585% in “Liposome pulldown” (setting [5]); 65.0801% in the data set “Liposome pulldown” (setting [6]); 97.4485% in “Liposome pulldown” (setting [7]). Also, the “Fraction of total protein (%), Bound” value in the data set “Liposome pulldown” (PC only liposomes, replicate 1) was 14.047%; in the data set “Liposome pulldown” (PC only liposomes, replicate 2), 12.1176%; in “Liposome pulldown” (PC only liposomes, replicate 3) it was 23.9918%; in “Liposome pulldown” (setting [5]) it was 42.5181%; in the data set “Liposome pulldown” (setting [6]), 53.6354%; in “Liposome pulldown” (setting [7]) it was 32.306%. Further, the “Lysis (%)” value is on record as 59.2077% in data set [2] (PC liposomes, replicate 1); 47.882% in data set [2] (PC liposomes, replicate 2); 48.469% in data set [2] (PC liposomes, replicate 3); 63.0445% in data set [2] (PC:PA liposomes, replicate 1); 68.1197% in data set [2] (PC:PA liposomes, replicate 2); 58.6174% in data set [2] (PC:PA liposomes, replicate 3). The “fungal growth inhibition activity compared to the wild type” value in the data set with C. albicans ATCC 10231 (IC50 comparison, two-tailed unpaired t test) was “No significant differences”. The concentration for half-maximal inhibition (IC50) in the data set with C. albicans ATCC 10231 (Replicate 1) turned out to be 4.14 µM; in the data set with C. albicans ATCC 10231 (Replicate 2), 4.17 µM; with C. albicans ATCC 10231 (Replicate 3), 4.2 µM.
Take “Crocodylus porosus β-defensin 13 (CpoBD13) (from UniProt A0A7G6KN55) H33A”: the response (% (fraction of total)) in data set [1] (pH 5.5, parent: est. 88) was 78; in data set [1] (pH 7.4, parent: est. 43), 38; with PC only liposomes (pH 5.5, parent: est. 20) it was 20; with PC only liposomes (pH 7.4, parent: est. 15), 18.
Taken in the same sequence, the figures for “Crocodylus porosus β-defensin 13 (CpoBD13) (from UniProt A0A7G6KN55) H21A” were 69, 38, 15 and 23.
In the same order, the values of “Crocodylus porosus β-defensin 13 (CpoBD13) (from UniProt A0A7G6KN55) H35A” are 90, 42, 18 and 15.
In the same order, the values of “Crocodylus porosus β-defensin 13 (CpoBD13) (from UniProt A0A7G6KN55) R9A” are 80, 17, 34 and 10.

B1: Crocodylus porosus β-defensin 13 (CpoBD13) (peptide, UniProt A0A7G6KN55 22-61, looked up)
chain: NGSYYSTLQCRNNHGHCRRLCFHGEQWIGNCNGRHQHCCK
notes: Crocodylus porosus β-defensin 13, mature defensin domain (nucleotides 142-255 of XM_019537183.1, limits set with SignalP); 114 nucleotides would give 38 residues; Three disulphide bonds; also called wild type CpoBD13; saltwater crocodile defensin; source: Pichia pastoris (pPIC9 vector), purified by cation exchange chromatography
Usually stoichiometry N stands for the number of molecules, sites or subunits per partner or assembly. Consider B1, for which the “stoichiometry N” value in data set [3] was no more than 5; in data set [4], 2.

(Values after paper PMC9977887, “Crocodile defensin (CpoBD13) antifungal activity via pH-dependent phospholipid targeting and membrane disruption” (Nature Communications, 2023).)
